In the supplement of paper PMC10065799, “High-throughput profiling of sequence recognition by tyrosine kinases and SH2 domains using bacterial peptide display” (eLife, 2023):

molecular target: FGFR1 (UniProt P11362); experiment: phosphorylation enrichment, bacterial display (enrichment ratio); higher = better substrate or ligand; peptides without Tyr show the background
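Note: 11-residue human phosphosite peptides and single-mutation variants displayed on the E. coli surface, counted by deep sequencing, each peptide's frequency after selection divided by its frequency in the unselected input library; frequency after pTyr selection over input frequency; kinase dosed for 20-30% of maximal phosphorylation in three min.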

Sequence of FGFR1 (P11362 whole entry, looked up): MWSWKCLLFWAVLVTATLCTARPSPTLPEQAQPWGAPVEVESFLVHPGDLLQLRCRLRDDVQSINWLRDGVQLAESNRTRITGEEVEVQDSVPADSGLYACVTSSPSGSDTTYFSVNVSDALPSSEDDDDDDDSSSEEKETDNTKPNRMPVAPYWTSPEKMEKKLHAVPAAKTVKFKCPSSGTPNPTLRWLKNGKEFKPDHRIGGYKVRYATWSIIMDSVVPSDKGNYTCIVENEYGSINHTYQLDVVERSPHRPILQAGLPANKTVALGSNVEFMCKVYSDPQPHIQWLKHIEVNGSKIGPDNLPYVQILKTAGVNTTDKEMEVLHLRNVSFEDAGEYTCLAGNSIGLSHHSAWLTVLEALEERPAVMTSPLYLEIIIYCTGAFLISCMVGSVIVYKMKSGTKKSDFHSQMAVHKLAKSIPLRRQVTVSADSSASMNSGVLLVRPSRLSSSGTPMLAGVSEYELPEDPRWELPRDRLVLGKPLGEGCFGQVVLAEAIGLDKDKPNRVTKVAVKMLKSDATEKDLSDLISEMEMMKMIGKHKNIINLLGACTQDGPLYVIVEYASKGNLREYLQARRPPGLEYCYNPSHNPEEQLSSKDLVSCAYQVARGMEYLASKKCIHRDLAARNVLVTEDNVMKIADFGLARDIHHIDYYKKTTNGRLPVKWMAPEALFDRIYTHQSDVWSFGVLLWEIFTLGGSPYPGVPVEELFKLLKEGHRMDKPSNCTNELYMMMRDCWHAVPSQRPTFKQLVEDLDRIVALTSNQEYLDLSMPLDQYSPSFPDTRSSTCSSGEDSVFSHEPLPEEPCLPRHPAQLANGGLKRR

Question: With PFSNSYENSLI [EPOR_Y489_P488S_YF] as the sequence, how does the phosphorylation enrichment read?
Answer: 0.577

Question: How did the phosphorylation enrichment turn out when GHRPVYSEDEQ [CHST6_Y362_Y358H] was run?
Answer: 0.495

Question: With IEENGYNTYAS [FGF10_Y161] as the sequence, how does the phosphorylation enrichment read?
Answer: 0.562

Question: SVTCTNSPALN [TP53_Y126_Y126N] was tested. Which phosphorylation enrichment did it give?
Answer: 0.491

Question: DGFIDYAEFAK [MCFD2_Y138_YF] was tested. Which phosphorylation enrichment did it give?
Answer: 0.522

Question: VFFDLYGGEKF [PTPN11_Y66_D61V_YF] was tested. Which phosphorylation enrichment did it give?
Answer: 0.443

Question: For DGSALYTGSAL [COL6A3_Y524], which phosphorylation enrichment is on record?
Answer: 0.313

Question: For AHAGEYGEEAL [HBA1_Y25_A27E], which phosphorylation enrichment is on record?
Answer: 0.66

Question: RLKAKYAAATG [GLI3_Y933] was tested. Which phosphorylation enrichment did it give?
Answer: 0.36

Question: Which phosphorylation enrichment does the source give for YGAHKYHPLPV [OAT_Y55_N54K] here?
Answer: 0.444

Question: AISEGYKDFRA [CDA_Y79_V75I] was tested. Which phosphorylation enrichment did it give?
Answer: 0.425

Question: Which phosphorylation enrichment does the source give for ARKWGYTVKGI [OAT_Y158] here?
Answer: 0.437

Question: With FCRHNYGVVES [HLA-DRB1_Y112_YF] as the sequence, how does the phosphorylation enrichment read?
Answer: 0.587

Question: For EKMWSYMKSAE [GRIA3_Y705], which phosphorylation enrichment is on record?
Answer: 0.411

Question: How did the phosphorylation enrichment turn out when KNRDVYSSDYF [USP24_Y2134] was run?
Answer: 2.07

Question: How did the phosphorylation enrichment turn out when LIDSSYLTPTA [GREB1L_Y1063_R1066P] was run?
Answer: 0.596

Question: Which phosphorylation enrichment does the source give for FEGAIYRKDIG [GART_Y417_V421I] here?
Answer: 0.478

Question: For RQAQAYRGQRV [TSHR_Y706], which phosphorylation enrichment is on record?
Answer: 1.23

Question: How did the phosphorylation enrichment turn out when LIHLHYIRKDF [BBS4_Y43_YF] was run?
Answer: 0.937

Question: For QTLTDYDIRFF [CSNK2A1_Y131_YF], which phosphorylation enrichment is on record?
Answer: 0.569

Question: Which phosphorylation enrichment does the source give for REVPVYTYSEP [FAM120B_Y368_D370Y] here?
Answer: 1.56

Question: For IQRSLYDRPAS [PDGFRA_Y762], which phosphorylation enrichment is on record?
Answer: 0.489

Question: TKDTFYKQPMF [GBA_Y451] was tested. Which phosphorylation enrichment did it give?
Answer: 0.389

Question: How did the phosphorylation enrichment turn out when PLDGEYVTLQI [TP53_Y327_F328V] was run?
Answer: 1.75

Question: How did the phosphorylation enrichment turn out when LIGTPYWMAPE [PAK5_Y608_V604I] was run?
Answer: 4.64

Question: How did the phosphorylation enrichment turn out when RSHLPYDVTPE [IQGAP3_Y1098] was run?
Answer: 0.752

Question: How did the phosphorylation enrichment turn out when EAVLHYKHQNQ [MTOR_Y1804] was run?
Answer: 0.338

Question: For VPLATYMQIYK [RPL21_Y30_R32Q], which phosphorylation enrichment is on record?
Answer: 0.448

Question: How did the phosphorylation enrichment turn out when ARSHIYTFASC [MEFV_Y741] was run?
Answer: 0.491

Question: Which phosphorylation enrichment does the source give for GLGVTYEQALA [MAP2_Y996] here?
Answer: 0.437

Question: For DFRTTYVNANE [KCNH2_Y475_N470D], which phosphorylation enrichment is on record?
Answer: 0.414

Question: For FIPFRYPKEFQ [IDS_Y234_H229Y_YF], which phosphorylation enrichment is on record?
Answer: 0.465

Question: Which phosphorylation enrichment does the source give for VVHSSYDEIEG [SEC24A_Y263] here?
Answer: 0.493

system: c-Abl (mouse); experiment: as above

Question: PFSNSYENSLI [EPOR_Y489_P488S_YF] was tested. Which phosphorylation enrichment did it give?
Answer: 0.877

Question: For GHRPVYSEDEQ [CHST6_Y362_Y358H], which phosphorylation enrichment is on record?
Answer: 0.757

Question: Which phosphorylation enrichment does the source give for IEENGYNTYAS [FGF10_Y161] here?
Answer: 0.64

Question: How did the phosphorylation enrichment turn out when SVTCTNSPALN [TP53_Y126_Y126N] was run?
Answer: 0.762

Question: With DGFIDYAEFAK [MCFD2_Y138_YF] as the sequence, how does the phosphorylation enrichment read?
Answer: 0.728

Question: With VFFDLYGGEKF [PTPN11_Y66_D61V_YF] as the sequence, how does the phosphorylation enrichment read?
Answer: 0.914

Question: Which phosphorylation enrichment does the source give for DGSALYTGSAL [COL6A3_Y524] here?
Answer: 0.459

Question: With AHAGEYGEEAL [HBA1_Y25_A27E] as the sequence, how does the phosphorylation enrichment read?
Answer: 1.01

Question: For RLKAKYAAATG [GLI3_Y933], which phosphorylation enrichment is on record?
Answer: 0.601

Question: With YGAHKYHPLPV [OAT_Y55_N54K] as the sequence, how does the phosphorylation enrichment read?
Answer: 0.498

Question: With AISEGYKDFRA [CDA_Y79_V75I] as the sequence, how does the phosphorylation enrichment read?
Answer: 0.622

Question: With ARKWGYTVKGI [OAT_Y158] as the sequence, how does the phosphorylation enrichment read?
Answer: 0.724

Question: With FCRHNYGVVES [HLA-DRB1_Y112_YF] as the sequence, how does the phosphorylation enrichment read?
Answer: 0.545

Question: For EKMWSYMKSAE [GRIA3_Y705], which phosphorylation enrichment is on record?
Answer: 0.547

Question: With KNRDVYSSDYF [USP24_Y2134] as the sequence, how does the phosphorylation enrichment read?
Answer: 0.656

Question: With LIDSSYLTPTA [GREB1L_Y1063_R1066P] as the sequence, how does the phosphorylation enrichment read?
Answer: 0.871

Question: How did the phosphorylation enrichment turn out when FEGAIYRKDIG [GART_Y417_V421I] was run?
Answer: 0.515

Question: For RQAQAYRGQRV [TSHR_Y706], which phosphorylation enrichment is on record?
Answer: 1.25

Question: With LIHLHYIRKDF [BBS4_Y43_YF] as the sequence, how does the phosphorylation enrichment read?
Answer: 0.612

Question: QTLTDYDIRFF [CSNK2A1_Y131_YF] was tested. Which phosphorylation enrichment did it give?
Answer: 0.737

Question: For REVPVYTYSEP [FAM120B_Y368_D370Y], which phosphorylation enrichment is on record?
Answer: 1.97

Question: IQRSLYDRPAS [PDGFRA_Y762] was tested. Which phosphorylation enrichment did it give?
Answer: 0.541

Question: How did the phosphorylation enrichment turn out when TKDTFYKQPMF [GBA_Y451] was run?
Answer: 0.954

Question: PLDGEYVTLQI [TP53_Y327_F328V] was tested. Which phosphorylation enrichment did it give?
Answer: 1.17

Question: How did the phosphorylation enrichment turn out when LIGTPYWMAPE [PAK5_Y608_V604I] was run?
Answer: 0.987

Question: With RSHLPYDVTPE [IQGAP3_Y1098] as the sequence, how does the phosphorylation enrichment read?
Answer: 1.39

Question: Which phosphorylation enrichment does the source give for EAVLHYKHQNQ [MTOR_Y1804] here?
Answer: 0.589

Question: Which phosphorylation enrichment does the source give for VPLATYMQIYK [RPL21_Y30_R32Q] here?
Answer: 0.565

Question: For ARSHIYTFASC [MEFV_Y741], which phosphorylation enrichment is on record?
Answer: 0.849

Question: GLGVTYEQALA [MAP2_Y996] was tested. Which phosphorylation enrichment did it give?
Answer: 1.18

Question: With DFRTTYVNANE [KCNH2_Y475_N470D] as the sequence, how does the phosphorylation enrichment read?
Answer: 0.405

Question: Which phosphorylation enrichment does the source give for FIPFRYPKEFQ [IDS_Y234_H229Y_YF] here?
Answer: 0.595

Question: VVHSSYDEIEG [SEC24A_Y263] was tested. Which phosphorylation enrichment did it give?
Answer: 0.713
